Measured values reported in patent publication US20100215670A1 (published 2010).

T1: Ep-CAM (Epithelial Cell Adhesion Molecule) (UniProt P16422 24-314, limits assumed)
T1 construct: whole, on cells; Endogenous antigen on tumour cell lines; also called 17-1A; KSA
T1 sequence (looked up): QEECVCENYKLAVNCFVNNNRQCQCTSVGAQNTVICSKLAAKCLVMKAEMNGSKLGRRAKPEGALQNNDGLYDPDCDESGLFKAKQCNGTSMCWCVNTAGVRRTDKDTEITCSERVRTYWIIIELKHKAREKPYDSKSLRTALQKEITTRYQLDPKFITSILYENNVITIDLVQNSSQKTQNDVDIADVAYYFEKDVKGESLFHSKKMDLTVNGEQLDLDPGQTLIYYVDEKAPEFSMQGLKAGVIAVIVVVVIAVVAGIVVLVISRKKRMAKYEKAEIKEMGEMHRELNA


Experiments:
[1] = target: T1, Ep-CAM (Epithelial Cell Adhesion …); assay: flow cytometry on CAL 27 cells (Ep-CAM-positive)
[2] = target: T1, Ep-CAM (Epithelial Cell Adhesion …); assay: flow cytometry on NIH:OVCAR-3 cells (Ep-CAM-positive)
[3] = target: T1, Ep-CAM (Epithelial Cell Adhesion …); assay: flow cytometry on CAL 27 cells (Ep-CAM-positive); one representative experiment
[4] = target: T1, Ep-CAM (Epithelial Cell Adhesion …); assay: flow cytometry on NIH:OVCAR-3 cells (Ep-CAM-positive); one representative experiment

Binder	Median Fold (MF) increase [1] [fold]	Median Fold (MF) increase [2] [fold]	Median Fold (MF) increase [3] [fold]	Median Fold (MF) increase [4] [fold]
VB6-845-F-de-bouganin (Fab, also called VB6-845L-F-de-bouganin) chain 1: HHHHHHEVQLVQSGPGLVQPGGSVRISCAASGYTFTNYGMNWVKQAPGKGLEWMGWINTYTGESTYADSFKGRFTFSLDTSASAAYLQINSLRAEDTAVYYCARFAIKGDYWGQGTLLTVSSASTKGPSVFPLAPSSKSTSGGTAALGCLVKDYFPEPVTVSWNSGALTSGVHTFPAVLQSSGLYSLSSVVTVPSSSLGTQTYICNVNHKPSNTKVDKKVEPKSC chain 2: DIQMTQSPSSLSASVGDRVTITCRSTKSLLHSNGITYLYWYQQKPGKAPKLLIYQMSNLASGVPSRFSSSGSGTDFTLTISSLQPEDFATYYCAQNLEIPRTFGQGTKVELKRTVAAPSVFIFPPSDEQLKSGTASVVCLLNNFYPREAKVQWKVDNALQSGNSQESVTEQDSKDSTYSLSSTLTLSKADYEKHKVYACEVTHQGLSSPVTKSFNRGECTRHRQPRGWEQLYNTVSFNLGEAYEYPTFIQDLRNELAKGTPVCQLPVTLQTIADDKRFVLVDITTTSKKTVKVAIDVTDVYVVGYQDKWDGKDRAVFLDKVPTVATSKLFPGVTNRVTLTFDGSYQKLVNAAKADRKALELGVNKLEFSIEAIHGKTINGQEAAKFFLIVIQMVSEAARFKYIETEVVDRGLYGSFKPNFKVLNLENNWGDISDAIHKSSPQCTTINPALQLISPSNDPWVVNKVSQISPDMGILKFKSSK	63.6	130		
VB6-845-CB1-CD-de-bouganin (Fab, also called CB1-CD construct) chain 1: HHHHHHEVQLVQSGPGLVQPGGSVRISCAASGYTFTNYGMNWVKQAPGKGLEWMGWINTYTGESTYADSFKGRFTFSLDTSASAAYLQINSLRAEDTAVYYCARFAIKGDYWGQGTLLTVSSASTKGPSVFPLAPSSKSTSGGTAALGCLVKDYFPEPVTVSWNSGALTSGVHTFPAVLQSSGLYSLSSVVTVPSSSLGTQTYICNVNHKPSNTKVDKKVEPKSC chain 2: DIQMTQSPSSLSASVGDRVTITCRSTKSLLHSNGITYLYWYQQKPGKAPKLLIYQMSNLASGVPSRFSSSGSGTDFTLTISSLQPEDFATYYCAQNLEIPRTFGQGTKVELKRTVAAPSVFIFPPSDEQLKSGTASVVCLLNNFYPREAKVQWKVDNALQSGNSQESVTEQDSKDSTYSLSSTLTLSKADYEKHKVYACEVTHQGLSSPVTKSFNRGECQGVGFLGTQFFYNTVSFNLGEAYEYPTFIQDLRNELAKGTPVCQLPVTLQTIADDKRFVLVDITTTSKKTVKVAIDVTDVYVVGYQDKWDGKDRAVFLDKVPTVATSKLFPGVTNRVTLTFDGSYQKLVNAAKADRKALELGVNKLEFSIEAIHGKTINGQEAAKFFLIVIQMVSEAARFKYIETEVVDRGLYGSFKPNFKVLNLENNWGDISDAIHKSSPQCTTINPALQLISPSNDPWVVNKVSQISPDMGILKFKSSK			68	110
VB6-845-F1R-de-bouganin (Fab, also called F1R linker construct) chain 1: HHHHHHEVQLVQSGPGLVQPGGSVRISCAASGYTFTNYGMNWVKQAPGKGLEWMGWINTYTGESTYADSFKGRFTFSLDTSASAAYLQINSLRAEDTAVYYCARFAIKGDYWGQGTLLTVSSASTKGPSVFPLAPSSKSTSGGTAALGCLVKDYFPEPVTVSWNSGALTSGVHTFPAVLQSSGLYSLSSVVTVPSSSLGTQTYICNVNHKPSNTKVDKKVEPKSC chain 2: DIQMTQSPSSLSASVGDRVTITCRSTKSLLHSNGITYLYWYQQKPGKAPKLLIYQMSNLASGVPSRFSSSGSGTDFTLTISSLQPEDFATYYCAQNLEIPRTFGQGTKVELKRTVAAPSVFIFPPSDEQLKSGTASVVCLLNNFYPREAKVQWKVDNALQSGNSQESVTEQDSKDSTYSLSSTLTLSKADYEKHKVYACEVTHQGLSSPVTKSFNRGECTRHRRKRSVYNTVSFNLGEAYEYPTFIQDLRNELAKGTPVCQLPVTLQTIADDKRFVLVDITTTSKKTVKVAIDVTDVYVVGYQDKWDGKDRAVFLDKVPTVATSKLFPGVTNRVTLTFDGSYQKLVNAAKADRKALELGVNKLEFSIEAIHGKTINGQEAAKFFLIVIQMVSEAARFKYIETEVVDRGLYGSFKPNFKVLNLENNWGDISDAIHKSSPQCTTINPALQLISPSNDPWVVNKVSQISPDMGILKFKSSK	55	112		
